Test results taken from article PMC11958657.

Experiments:
[1] = molecular target: R4-MHC (SIYRYYGL peptide presented by H-2K^b) (mouse | human); assay: ultra-stable biomembrane force probe (U-BFP), force-clamp bond lifetimes; as a3, but the T cell expresses wild-type CD8αβ beside the TCR (TCR–pMHC–CD8 tri-molecular interaction)
[2] = molecular target: R4-MHC (SIYRYYGL peptide presented by H-2K^b) (mouse | human); assay: ultra-stable biomembrane force probe (U-BFP), force-clamp bond lifetimes; as a3, but the 2C hybridoma cell expresses CD8 with CD8β-Ile2Ala at a level matched to WT CD8
[3] = molecular target: R4-MHC (SIYRYYGL peptide presented by H-2K^b) (mouse | human); assay: ultra-stable biomembrane force probe (U-BFP), force-clamp bond lifetimes; biotinylated pMHC on a streptavidin bead on a red blood cell probe against a TCR-expressing T cell without CD8; adhesion frequency below 20%; DMEM with 0.5% BSA
[4] = molecular target: L4-MHC (SIYLYYGL peptide presented by H-2K^b) (mouse | human); assay: micropipette single-cell adhesion frequency assay; TCR on a hybridoma T cell held by a micropipette, brought into contact with a streptavidin-coated biotinylated human RBC carrying biotinylated pMHC; bi-molecular TCR-pMHC (CD8-); zero force; 2D effective constants from the fit of adhesion frequency against contact time
[5] = molecular target: L4-MHC (SIYLYYGL peptide presented by H-2K^b) (mouse | human); assay: micropipette single-cell adhesion frequency assay; biotinylated pMHC on streptavidin-coated red blood cells against a TCR-expressing T cell; 2D effective binding affinity AcKa; whether CD8 was on the T cells is not stated
[6] = molecular target: R4-MHC (SIYRYYGL peptide presented by H-2K^b) (mouse | human); assay: as above
[7] = molecular target: R4-MHC (SIYRYYGL peptide presented by H-2K^b) (mouse | human)
[8] = molecular target: R4-MHC ( peptide presented by H-2K^b) (mouse | human); assay: SPR
[9] = molecular target: L4-MHC ( peptide presented by H-2K^b) (mouse | human); assay: SPR
[10] = molecular target: L4-MHC (SIYLYYGL peptide presented by H-2K^b) (mouse | human); assay: ultra-stable biomembrane force probe (U-BFP), force-clamp bond lifetimes; as a3, but the T cell expresses wild-type CD8αβ beside the TCR (TCR–pMHC–CD8 tri-molecular interaction)
[11] = molecular target: L4-MHC (SIYLYYGL peptide presented by H-2K^b) (mouse | human); assay: ultra-stable biomembrane force probe (U-BFP), force-clamp bond lifetimes; biotinylated pMHC on a streptavidin bead on a red blood cell probe against a TCR-expressing T cell without CD8; adhesion frequency below 20%; DMEM with 0.5% BSA
[12] = molecular target: L4-MHC (SIYLYYGL peptide presented by H-2K^b) (mouse | human)
[13] = molecular target: R4-MHC (SIYRYYGL peptide presented by H-2K^b) (mouse | human); remark: listed apart in the source

| Substance | bond lifetime ratio R4-MHC over L4-MHC, medium force regime (9–12 pN), with CD8 [1] [fold] | peak bond lifetime, with CD8 [1] [s] | bond lifetime ratio R4-MHC over L4-MHC, high force regime (16–19 pN), without CD8 [3] [fold] | bond lifetime ratio R4-MHC over L4-MHC, low force regime (2–5 pN), without CD8 [3] [fold] | bond lifetime ratio R4-MHC over L4-MHC, medium force regime (9–12 pN), without CD8 [3] [fold] | koff [4] [s⁻¹] | 2D effective binding affinity (AcKa) [5] [μm^4] | 2D effective binding affinity (AcKa) [6] [μm^4] | Kd [8] [nM] | Kd [9] [nM] | also measured |
| --- | --- | --- | --- | --- | --- | --- | --- | --- | --- | --- | --- |
| m33-TCR, soluble ectodomains |  |  |  |  |  |  |  |  | 187 | 567 |  |
| m67-TCR, soluble ectodomains |  |  |  |  |  |  |  |  | 26.3 | 96.2 |  |
| mouse CD8αβ with CD8β-Ile2Ala (from UniProt P01731 28-247; P10300 22-213) (receptor) |  |  |  |  |  |  |  |  |  |  | TCR specificity of 2C hybridoma cells (ratio of IL-2 sensitivities for R4 over L4) with CD8β-Ile2Ala [13]: 7070 |
| mouse CD8αβ, wild type (from UniProt P01731 28-247; P10300 22-213) (receptor) |  |  |  |  |  |  |  |  |  |  | TCR specificity of 2C hybridoma cells (ratio of IL-2 sensitivities for R4 over L4) with WT CD8 [13]: 65500 |

Second part, led by results:

| bond lifetime ratio R4-MHC over L4-MHC, medium force regime (9–12 pN), with CD8 [1] [fold] | peak bond lifetime, with CD8 [1] [s] | bond lifetime ratio R4-MHC over L4-MHC, high force regime (16–19 pN), without CD8 [3] [fold] | bond lifetime ratio R4-MHC over L4-MHC, low force regime (2–5 pN), without CD8 [3] [fold] | bond lifetime ratio R4-MHC over L4-MHC, medium force regime (9–12 pN), without CD8 [3] [fold] | koff [4] [s⁻¹] | 2D effective binding affinity (AcKa) [5] [μm^4] | 2D effective binding affinity (AcKa) [6] [μm^4] | Kd [8] [nM] | Kd [9] [nM] | Substance | also measured |
| --- | --- | --- | --- | --- | --- | --- | --- | --- | --- | --- | --- |
| 10 | 0.8 | 5.1 | 1.3 | 3.38 | 6.61 | 3.7e-05 | 0.0016 |  |  | 2C-TCR | CD8 enhancement power (bond lifetime with CD8 over without CD8), medium force regime [1]: 3.04 fold; bond lifetime ratio R4-MHC over L4-MHC, medium force regime, with CD8β-Ile2Ala [2]: 4.81; fold reduction of CD8 enhancement power (CD8β-Ile2Ala against WT CD8) [2]: 2 times; peak bond lifetime, with CD8β-Ile2Ala [2]: 0.54 s; peak bond lifetime (at ~8.32 pN), without CD8 [3]: 0.3 s; IL-2 production of 2C hybridoma T cells stimulated by RMA-S cells pulsed with R4 peptide, with CD8 against without CD8 [7]: > 100 fold |
|  |  |  |  |  |  |  |  | 20200 | 38200 | 2C-TCR, soluble ectodomains |  |
| 1.19 | 5.2 | 7.55 | 1.13 | 1.99 | 4.22 | 0.00089 | 0.0013 |  |  | m33-TCR | CD8 enhancement power (bond lifetime with CD8 over without CD8), medium force regime [10]: 5.7 fold; peak bond lifetime, with CD8 [10]: 3.99 s; CD8 enhancement power (bond lifetime with CD8 over without CD8), medium force regime [1]: 3.4 fold; peak bond lifetime (at ~9.62 pN), without CD8 [11]: 1.82 s; peak bond lifetime (at ~12.85 pN), without CD8 [3]: 3.43 s; L4 peptide concentration (on RMA-S cells) at which m33 hybridoma T cells release IL-2, with CD8 [12]: 1 nM; R4 peptide concentration (on RMA-S cells) at which m33 hybridoma T cells release IL-2, without CD8 [7]: 100 pM |
| 0.96 | 5.95 | 2.63 | 0.34 | 3.77 | 4.92 | 0.00099 | 0.0016 |  |  | m67-TCR | CD8 enhancement power (bond lifetime with CD8 over without CD8), medium force regime [10]: 4.36 fold; peak bond lifetime, with CD8 [10]: 5.09 s; peak bond lifetime, without CD8 [11]: 2.56 s; peak bond lifetime, without CD8 [3]: 5.94 s; L4 peptide concentration (on RMA-S cells) at which m67 hybridoma T cells release IL-2, with CD8 [12]: 100 pM; R4 peptide concentration (on RMA-S cells) at which m67 hybridoma T cells release IL-2, without CD8 [7]: 10 nM |
